Measurements: article PMC7432317, “Structural Analysis of the SANT/Myb Domain of FLASH and YARP Proteins and Their Complex with the C-Terminal Fragment of NPAT by NMR Spectroscopy and Computer Simulations” (International Journal of Molecular Sciences, 2020)

Biological target: T1, C-terminal fragment of FLICE-associated huge protein (FLASH), residues 1923-1982 (human, UniProt Q9UKL3 1923-1982)
T1 construct: FLASH (FLICE-associated huge protein), residues 1923-1982; residue 1982 is the C-terminal amino acid of the protein; Uniformly 15N- or 13C,15N-labelled for NMR; also called FLASH fragment; SANT/Myb domain of FLASH; source: E. coli BL21 (DE3), pET28a, minimal M9 media, purified (nickel beads, SEC Superdex 75)
T1 sequence (looked up): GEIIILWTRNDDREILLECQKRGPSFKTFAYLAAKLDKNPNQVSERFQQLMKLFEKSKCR
Assay: NMR titration; 1H-15N HSQC of 15N-labelled FLASH fragment (300 uM) with step-wise addition of the NPAT peptide (150 uM, two fold molar excess of FLASH analysed; equimolar mixtures precipitated); 25 mM TRIS-HCl, 200 mM KCl, pH 6.2, 50 mM Arg+Glu, 40 mM TCEP, 298 K
Conditions: both partners purified

- binding result: binds
B1: NPAT peptide, the last 31 residues of NPAT (1397-1427) (peptide)
peptide: KKKKIKKKKLPSSFPAGMDVDKFLLSLHYDE
notes: Free N-terminus, carboxyl at C-terminus; also called C-terminal NPAT peptide; source: synthetic peptide (Fmoc solid phase synthesis, RP-HPLC purified)
